From the supplement of paper PMC5998384 come the findings set out here.

In data set [1] the test system is HeLa Kyoto. The experiment in a line: thermal stability score vs G1/S (z-score of summed log2 fold changes over temperatures); higher = more thermally stable than in G1/S.
For data set [2], the system named is HeLa Kyoto. The experiment in a line: solubility change mitosis vs G1/S (difference of NP-40 vs SDS log2 ratios) (log2 ratio difference); higher = more soluble in mitosis.
Data set [3] has as its system HeLa Kyoto. The data set is described as follows: solubility in G1/S (NP-40 vs SDS abundance) (log2 ratio); higher = more soluble. As to conditions: cell cycle stage: G1/S.
In data set [4] the test system is HeLa Kyoto. The experiment in a line: melting temperature (median over replicates), in situ; higher = more thermally stable.
[5] abbreviates: cell cycle stage: early G1 (4.5 h after nocodazole release).
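Wherever melting temperature (median over replicates), in situ is given: HeLa Kyoto cells synchronized by double thymidine or nocodazole block, proteins quantified by TMT10plex mass spectrometry, three independent biological replicates.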
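Wherever solubility change mitosis vs G1/S (difference of NP-40 vs SDS log2 ratios) is given: synchronized HeLa Kyoto cells (double thymidine block for G1/S, nocodazole release for mitosis), protein amounts in NP-40 versus SDS lysates quantified by mass spectrometry, three biological replicates.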
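Wherever solubility in G1/S (NP-40 vs SDS abundance) is given: HeLa Kyoto cells arrested at G1/S by double thymidine block, proteins quantified by TMT10plex mass spectrometry in mild NP-40 versus SDS extracts, three biological replicates.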
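Wherever thermal stability score vs G1/S (z-score of summed log2 fold changes over temperatures) is given: synchronized HeLa Kyoto cells, proteins quantified by TMT10plex mass spectrometry, three biological replicates, mitosis taken 0.5 h after nocodazole release, G1/S directly after double thymidine block.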

Take “MAEAMDLGKDPNGPTHSSTLFVRDDGSSMSFYVRPSPAKRRLSTLILHGGGTVCRVQEPGAVLLAQPGEALAEASGDFISTQYILDCVERNERLELEAYRLGPASAADTGSEAKPGALAEGAAEPEPQRHAGRIAFTDADDVAILTYVKENARSPSSVTGNALWKAMEKSSLTQHSWQSLKDRYLKHLRGQEHKYLLGDAPVSPSSQKLKRKAEEDPEAADSGEPQNKRTPDLPEEEYVKEEIQENEEAVKKMLVEATREFEEVVVDESPPDFEIHITMCDDDPPTPEEDSETQPDEEEEEEEEKVSQPEVGAAIKIIRQLMEKFNLDLSTVTQAFLKNSGELEATSAFLASGQRADGYPIWSRQDDIDLQKDDEDTREALVKKFGAQNVARRIEFRKK [TERF2IP]”: the thermal stability score in data set [1] (setting [5]) turned out to be 1.96; in data set [1] (cell cycle stage: mitosis), 1.16. In data set [2], the “solubility change mitosis (log2)” value amounted to 0.0568. The “solubility in G1/S (log2)” value in data set [3] was determined as 0.503. The melting temperature turned out to be 49.8 °C in data set [4] (cell cycle stage: G1/S) and 52.4 °C in data set [4] (cell cycle stage: mitosis).
On to “MAEAVLRVARRQLSQRGGSGAPILLRQMFEPVSCTFTYLLGDRESREAVLIDPVLETAPRDAQLIKELGLRLLYAVNTHCHADHITGSGLLRSLLPGCQSVISRLSGAQADLHIEDGDSIRFGRFALETRASPGHTPGCVTFVLNDHSMAFTGDALLIRGCGRTDFQQGCAKTLYHSVHEKIFTLPGDCLIYPAHDYHGFTVSTVEEERTLNPRLTLSCEEFVKIMGNLNLPKPQQIDFAVPANMRCGVQTPTA [ETHE1]”, for which the thermal stability score is -1 in data set [1] (setting [5]) and -1.06 in data set [1] (cell cycle stage: mitosis). Besides, the “solubility change mitosis (log2)” value in data set [2] is -0.0383. For the same sequence, in data set [3], the “solubility in G1/S (log2)” value was found to be 0.214. Besides, the figures for the melting temperature in data set [4] (cell cycle stage: G1/S) and in data set [4] (cell cycle stage: mitosis) were 56.6 °C and 56.5 °C, respectively.
As to “MAEDDPYLGRPEQMFHLDPSLTHTIFNPEVFQPQMALPTDGPYLQILEQPKQRGFRFRYVCEGPSHGGLPGASSEKNKKSYPQVKICNYVGPAKVIVQLVTNGKNIHLHAHSLVGKHCEDGICTVTAGPKDMVVGFANLGILHVTKKKVFETLEARMTEACIRGYNPGLLVHPDLAYLQAEGGGDRQLGDREKELIRQAALQQTKEMDLSVVRLMFTAFLPDSTGSFTRRLEPVVSDAIYDSKAPNASNLKIVRMDRTAGCVTGGEEIYLLCDKVQKDDIQIRFYEEEENGGVWEGFGDFSPTDVHRQFAIVFKTPKYKDINITKPASVFVQLRRKSDLETSEPKPFLYYPEIKDKEEVQRKRQKLMPNFSDSFGGGSGAGAGGGGMFGSGGGGGGTGSTGPGYSFPHYGFPTYGGITFHPGTTKSNAGMKHGTMDTESKKDPEGCDKSDDKNTVNLFGKVIETTEQDQEPSEATVGNGEVTLTYATGTKEESAGVQDNLFLEKAMQLAKRHANALFDYAVTGDVKMLLAVQRHLTAVQDENGDSVLHLAIIHLHSQLVRDLLEVTSGLISDDIINMRNDLYQTPLHLAVITKQEDVVEDLLRAGADLSLLDRLGNSVLHLAAKEGHDKVLSILLKHKKAALLLDHPNGDGLNAIHLAMMSNSLPCLLLLVAAGADVNAQEQKSGRTALHLAVEHDNISLAGCLLLEGDAHVDSTTYDGTTPLHIAAGRGSTRLAALLKAAGADPLVENFEPLYDLDDSWENAGEDEGVVPGTTPLDMATSWQVFDILNGKPYEPEFTSDDLLAQGDMKQLAEDVKLQLYKLLEIPDPDKNWATLAQKLGLGILNNAFRLSPAPSKTLMDNYEVSGGTVRELVEALRQMGYTEAIEVIQAASSPVKTTSQAHSLPLSPASTRQQIDELRDSDSVCDSGVETSFRKLSFTESLTSGASLLTLNKMPHDYGQEGPLEGKI [NFKB1]”, the thermal stability score in data set [1] (setting [5]) came to 0.372; in data set [1] (cell cycle stage: mitosis), 0.928. Moreover, in data set [2], the “solubility change mitosis (log2)” value is -0.0714. Moreover, the “solubility in G1/S (log2)” value in data set [3] was determined as 0.137. The melting temperature came to 48 °C in data set [4] (cell cycle stage: G1/S) and 48.5 °C in data set [4] (cell cycle stage: mitosis).
In the case of “MAEGEDVGWWRSWLQQSYQAVKEKSSEALEFMKRDLTEFTQVVQHDTACTIAATASVVKEKLATEGSSGATEKMKKGLSDFLGVISDTFAPSPDKTIDCDVITLMGTPSGTAEPYDGTKARLYSLQSDPATYCNEPDGPPELFDAWLSQFCLEEKKGEISELLVGSPSIRALYTKMVPAAVSHSEFWHRYFYKVHQLEQEQARRDALKQRAEQSISEEPGWEEEEEELMGISPISPKEAKVPVAKISTFPEGEPGPQSPCEENLVTSVEPPAEVTPSESSESISLVTQIANPATAPEARVLPKDLSQKLLEASLEEQGLAVDVGETGPSPPIHSKPLTPAGHTGGPEPRPPARVETLREEAPTDLRVFELNSDSGKSTPSNNGKKGSSTDISEDWEKDFDLDMTEEEVQMALSKVDASGELEDVEWEDWE [BSDC1]”, the thermal stability score in data set [1] (setting [5]) is -1.16; in data set [1] (cell cycle stage: mitosis), -2.92. In addition, the “solubility change mitosis (log2)” value in data set [2] is -0.201. In addition, the “solubility in G1/S (log2)” value in data set [3] was 0.378. Besides, the melting temperature was determined as 53.3 °C in data set [4] (cell cycle stage: G1/S) and 53.5 °C in data set [4] (cell cycle stage: mitosis).
For “MAEGERQPPPDSSEEAPPATQNFIIPKKEIHTVPDMGKWKRSQAYADYIGFILTLNEGVKGKKLTFEYRVSEMWNEVHEEKEQAAKQSVSCDECIPLPRAGHCAPSEAIEKLVALLNTLDRWIDETPPVDQPSRFGNKAYRTWYAKLDEEAENLVATVVPTHLAAAVPEVAVYLKESVGNSTRIDYGTGHEAAFAAFLCCLCKIGVLRVDDQIAIVFKVFNRYLEVMRKLQKTYRMEPAGSQGVWGLDDFQFLPFIWGSSQLIDHPYLEPRHFVDEKAVNENHKDYMFLECILFITEMKTGPFAEHSNQLWNISAVPSWSKVNQGLIRMYKAECLEKFPVIQHFKFGSLLPIHPVTSG [PPP2R4]”, the thermal stability score came out at 2.14 in data set [1] (setting [5]) and 2.26 in data set [1] (cell cycle stage: mitosis). Besides, in data set [2], the “solubility change mitosis (log2)” value is -0.119. In addition, the “solubility in G1/S (log2)” value in data set [3] stood at 0.247. Besides, the melting temperature in data set [4] (cell cycle stage: G1/S) and in data set [4] (cell cycle stage: mitosis) was 53.8 °C throughout.
Regarding “MAEGGGCRERPDAETQKSELGPLMRTTLQRGAQWYLIDSRWFKQWKKYVGFDSWDMYNVGEHNLFPGPIDNSGLFSDPESQTLKEHLIDELDYVLVPTEAWNKLLNWYGCVEGQQPIVRKVVEHGLFVKHCKVEVYLLELKLCENSDPTNVLSCHFSKADTIATIEKEMRKLFNIPAERETRLWNKYMSNTYEQLSKLDNTVQDAGLYQGQVLVIEPQNEDGTWPRQTLQSKSSTAPSRNFTTSPKSSASPYSSVSASLIANGDSTSTCGMHSSGVSRGGSGFSASYNCQEPPSSHIQPGLCGLGNLGNTCFMNSALQCLSNTAPLTDYFLKDEYEAEINRDNPLGMKGEIAEAYAELIKQMWSGRDAHVAPRMFKTQVGRFAPQFSGYQQQDSQELLAFLLDGLHEDLNRVKKKPYLELKDANGRPDAVVAKEAWENHRLRNDSVIVDTFHGLFKSTLVCPECAKVSVTFDPFCYLTLPLPLKKDRVMEVFLVPADPHCRPTQYRVTVPLMGAVSDLCEALSRLSGIAAENMVVADVYNHRFHKIFQMDEGLNHIMPRDDIFVYEVCSTSVDGSECVTLPVYFRERKSRPSSTSSASALYGQPLLLSVPKHKLTLESLYQAVCDRISRYVKQPLPDEFGSSPLEPGACNGSRNSCEGEDEEEMEHQEEGKEQLSETEGSGEDEPGNDPSETTQKKIKGQPCPKRLFTFSLVNSYGTADINSLAADGKLLKLNSRSTLAMDWDSETRRLYYDEQESEAYEKHVSMLQPQKKKKTTVALRDCIELFTTMETLGEHDPWYCPNCKKHQQATKKFDLWSLPKILVVHLKRFSYNRYWRDKLDTVVEFPIRGLNMSEFVCNLSARPYVYDLIAVSNHYGAMGVGHYTAYAKNKLNGKWYYFDDSNVSLASEDQIVTKAAYVLFYQRRDDEFYKTPSLSSSGSSDGGTRPSSSQQGFGDDEACSMDTN [USP4]”, the thermal stability score came out at 0.154 in data set [1] (setting [5]) and 0.64 in data set [1] (cell cycle stage: mitosis). Moreover, in data set [2], the “solubility change mitosis (log2)” value is -0.278. Also, in data set [3], the “solubility in G1/S (log2)” value was found to be 0.0816. For the same sequence, the melting temperature in data set [4] (cell cycle stage: G1/S) was 48.4 °C; in data set [4] (cell cycle stage: mitosis), 48.5 °C.
